Measurements: patent US9527896B2, “Stabilized p53 peptides and uses thereof” (DANA-FARBER CANCER INSTITUTE, INC., priority 2007, dated 2016)
Bridge positions count the residues as written; N and C are the ends. Square brackets hold non-standard residues; d marks the D form. Peptide text beside a SMILES is read from it. R8 = C=CCCCCCC[C@@](C)(N)C(=O)O; S5 = C=CCCC[C@](C)(N)C(=O)O; βAla = NCCC(=O)O

Tests used:
[1] = target: T1, HDM2 (Homo sapiens, UniProt Q00987); experiment: Kd (nM)
T1 construct: Co-Immunoprecipitation of FITC-SAH-p53 Peptides and Endogenous HDM2; endogenous in cells; host or cells: SJSA-1 osteosarcoma cells
T1 sequence (Q00987 whole entry, looked up): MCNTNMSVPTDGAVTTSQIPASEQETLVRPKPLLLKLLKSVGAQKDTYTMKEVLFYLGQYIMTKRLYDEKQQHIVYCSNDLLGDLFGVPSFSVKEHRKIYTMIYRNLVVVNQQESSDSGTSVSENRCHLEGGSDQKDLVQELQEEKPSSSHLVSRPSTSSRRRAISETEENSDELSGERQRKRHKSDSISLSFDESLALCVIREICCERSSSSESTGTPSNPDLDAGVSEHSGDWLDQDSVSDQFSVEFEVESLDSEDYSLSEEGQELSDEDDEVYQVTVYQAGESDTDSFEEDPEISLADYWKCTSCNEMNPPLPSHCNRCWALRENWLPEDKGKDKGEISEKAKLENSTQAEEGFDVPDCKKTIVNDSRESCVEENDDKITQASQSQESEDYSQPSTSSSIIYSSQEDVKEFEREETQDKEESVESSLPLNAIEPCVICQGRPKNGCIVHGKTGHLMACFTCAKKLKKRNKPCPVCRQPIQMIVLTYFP
From the text: The patent's description of the figure: FIGS. 1A-1F Synthesis, Sequence, and Biochemical Analysis of SAH-p53 Peptides. FIG. 1A Non-natural amino acids were synthesized as described and cross-linked by ruthenium-catalyzed ring-closing olefin metathesis. […] Note: UAH-p53-8 is the “unstapled” form of SAH-p53-8.

[2] = circular dichroism; conditions: water; pH 7.0; 20 °C; 10-50 uM
[3] = test system: SJSA-1 cells
From the text: After washing with PBS, the cells were fixed in 4% paraformaldehyde, washed with PBS, and treated with DAPI-containing (nuclear counterstain) Vectashield mounting medium (Vector), coverslipped and imaged by confocal microscopy (BioRad 1024 or Nikon E800).

Kd [1] [nM]	cellular fluorescence [3]	SMILES	helicity [2] [%]
0.8 ± 0.05		CC(=O)NCCC(=O)N[C@@H](CC(C)C)C(=O)N[C@@H](CO)C(=O)N[C@@H](CCC(N)=O)C(=O)N[C@@H](CCC(=O)O)C(=O)N[C@H](C(=O)N[C@@H](Cc1ccccc1)C(=O)N[C@]1(C)CCCCCCC=CCCC[C@@](C)(C(=O)N[C@@H](CCC(N)=O)C(=O)N[C@@H](CC(N)=O)C(N)=O)NC(=O)[C@H](CC(C)C)NC(=O)[C@H](CC(C)C)NC(=O)[C@H](CCCCN)NC(=O)[C@H](Cc2c[nH]c3ccccc23)NC(=O)[C@H](CC(C)C)NC(=O)[C@H](CC(N)=O)NC1=O)[C@@H](C)O [SAH-p53-5] (Ac-[βAla]LSQETF[R8]NLWKLL[S5]QN-NH2; staple 8-15)	20
50 ± 10		CC(=O)NCCC(=O)N[C@@H](CCC(N)=O)C(=O)N[C@@H](CO)C(=O)N[C@@H](CCC(N)=O)C(=O)N[C@@H](CCC(N)=O)C(=O)N[C@H](C(=O)N[C@@H](Cc1ccccc1)C(=O)N[C@]1(C)CCCCCCC=CCCC[C@@](C)(C(=O)N[C@@H](CCC(N)=O)C(=O)N[C@@H](CC(N)=O)C(N)=O)NC(=O)[C@H](CC(C)C)NC(=O)[C@H](CC(C)C)NC(=O)[C@H](CCCCN)NC(=O)[C@H](Cc2c[nH]c3ccccc23)NC(=O)[C@H](CC(C)C)NC(=O)[C@H](CC(N)=O)NC1=O)[C@@H](C)O [SAH-p53-7] (Ac-[βAla]QSQQTF[R8]NLWKLL[S5]QN-NH2; staple 8-15)	36
		C=CCCCCCC[C@@](C)(NC(=O)[C@H](Cc1ccccc1)NC(=O)[C@@H](NC(=O)[C@H](CCC(N)=O)NC(=O)[C@H](CCC(N)=O)NC(=O)[C@H](CO)NC(=O)[C@H](CCC(N)=O)NC(=O)CCNC(C)=O)[C@@H](C)O)C(=O)N[C@@H](CC(N)=O)C(=O)N[C@@H](CC(C)C)C(=O)N[C@@H](Cc1c[nH]c2ccccc12)C(=O)N[C@@H](CCCNC(=N)N)C(=O)N[C@@H](CC(C)C)C(=O)N[C@@H](CC(C)C)C(=O)N[C@@](C)(CCCC=C)C(=O)N[C@@H](CCC(N)=O)C(=O)N[C@@H](CC(N)=O)C(N)=O [UAH-p53-8, Ac-QSQQTF*NLWRKK*QN-NH2]	36
		CC(=O)NCCC(=O)N[C@@H](CC(C)C)C(=O)N[C@@H](CO)C(=O)N[C@@H](CCC(N)=O)C(=O)N[C@]1(C)CCCCCCC=CCCC[C@@](C)(C(=O)N[C@@H](CC(C)C)C(=O)N[C@@H](CC(C)C)C(=O)N2CCC[C@H]2C(=O)N[C@@H](CCC(=O)O)C(=O)N[C@@H](CC(N)=O)C(N)=O)NC(=O)[C@H](Cc2c[nH]c3ccccc23)NC(=O)[C@H](CC(C)C)NC(=O)[C@H](CC(=O)O)NC(=O)[C@H](CO)NC(=O)[C@H](Cc2ccccc2)NC(=O)[C@H]([C@@H](C)O)NC1=O (Ac-[βAla]LSQ[R8]TFSDLW[S5]LLPEN-NH2; staple 5-12)	12
> 4000	Cellular fluorescence was observed	CC(=O)NCCC(=O)N[C@@H](CCC(N)=O)C(=O)N[C@@H](CO)C(=O)N[C@@H](CCC(N)=O)C(=O)N[C@@H](CCC(N)=O)C(=O)N[C@H](C(=O)N[C@@H](C)C(=O)N[C@]1(C)CCCCCCC=CCCC[C@@](C)(C(=O)N[C@@H](CCC(N)=O)C(=O)N[C@@H](CC(N)=O)C(N)=O)NC(=O)[C@H](CC(C)C)NC(=O)[C@H](CC(C)C)NC(=O)[C@H](CCCNC(=N)N)NC(=O)[C@H](Cc2c[nH]c3ccccc23)NC(=O)[C@H](CC(C)C)NC(=O)[C@H](CC(N)=O)NC1=O)[C@@H](C)O [SAH-p53-8F19A] (Ac-[βAla]QSQQTA[R8]NLWRLL[S5]QN-NH2; staple 8-15; N-terminus and C-terminus assumed)	39
		CC(=O)NCCC(=O)N[C@@H](CC(C)C)C(=O)N[C@@H](CO)C(=O)N[C@@H](CCC(N)=O)C(=O)N[C@@H](CCC(=O)O)C(=O)N[C@]1(C)CCCCCCC=CCCC[C@@](C)(C(=O)N[C@@H](CC(C)C)C(=O)N2CCC[C@H]2C(=O)N[C@@H](CCC(=O)O)C(=O)N[C@@H](CC(N)=O)C(N)=O)NC(=O)[C@H](CCCCN)NC(=O)[C@H](Cc2c[nH]c3ccccc23)NC(=O)[C@H](CC(C)C)NC(=O)[C@H](CC(=O)O)NC(=O)[C@H](CO)NC(=O)[C@H](Cc2ccccc2)NC1=O (Ac-[βAla]LSQE[R8]FSDLWK[S5]LPEN-NH2; staple 6-13)	10
		CC(=O)NCCC(=O)N[C@@H](CC(C)C)C(=O)N[C@@H](CO)C(=O)N[C@@H](CCC(N)=O)C(=O)N[C@@H](CCC(=O)O)C(=O)N[C@H](C(=O)N[C@@H](Cc1ccccc1)C(=O)N[C@@H](CO)C(=O)N[C@@H](CC(=O)O)C(=O)N[C@@H](CC(C)C)C(=O)N[C@@H](Cc1c[nH]c2ccccc12)C(=O)N[C@@H](CCCCN)C(=O)N[C@@H](CC(C)C)C(=O)N[C@@H](CC(C)C)C(=O)N1CCC[C@H]1C(=O)N[C@@H](CCC(=O)O)C(=O)N[C@@H](CC(N)=O)C(N)=O)[C@@H](C)O	11

SMILES	Kd [1] [nM]	cellular fluorescence [3]	helicity [2] [%]
CC(=O)NCCC(=O)N[C@@H](CC(C)C)C(=O)N[C@@H](CO)C(=O)N[C@@H](CCC(N)=O)C(=O)N[C@@H](CCC(=O)O)C(=O)N[C@H](C(=O)N[C@@H](Cc1ccccc1)C(=O)N[C@@H](CO)C(=O)N[C@@H](CC(=O)O)C(=O)N[C@]1(C)CCCCCCC=CCCC[C@@](C)(C(N)=O)NC(=O)[C@H](CCC(=O)O)NC(=O)[C@@H]2CCCN2C(=O)[C@H](CC(C)C)NC(=O)[C@H](CC(C)C)NC(=O)[C@H](CCCCN)NC(=O)[C@H](Cc2c[nH]c3ccccc23)NC1=O)[C@@H](C)O [SAH-p53-1] (Ac-[βAla]LSQETFSD[R8]WKLLPE[S5]-NH2; staple 10-17)	100 ± 8		25
